The source of these data is patent US8691772B2, “HSP60, HSP60 peptides and T cell vaccines for immunomodulation” (Yeda Research and Development Co. Ltd., priority 2005, dated 2014).

In assay [1] the test system is BALB/c lymph node-cells. Put plainly: T-cell migration assay towards SDF-1α, mouse lymph node cells. The class given is cell-based, BALB/c mice. The settings on record: in vitro, HSP60 1 hr. From the text: Mice and mouse T cells. Female C57BL/6J were obtained from Harlan Olac (Bicester, U.K.). TLR2-knockout mice on the C57BL/6J background were kindly provided by Dr. S. Akira (Osaka University, Osaka, Japan). CD3^+ T cells were isolated by negative selection with anti-mouse antibody cocktail (Pan T cell kit; Miltenyi Biotec; CITY Germany). The labeled cells were then passed through separation columns (MidiMACS columns, Miltenyi Biotec). The purified cells (>97% T cells) were untreated or treated with HSP60 as described. Similarly, T cells were purified from the lymph nodes of BALB/c mice (females, 1.5 months of age).
T-cell migration assay. Migration of ^51[Cr]-labeled human and mouse T cells through FN or endothelial cells to recombinant human SDF-1α was examined in 48-well Transwell chemotaxis apparatus (5-μm pore filters, 6.5-mm diameter; Corning, N.Y.), as previously described (Zanin-Zhorov et al., 2003b). For transendothelial migration assays, 2×10^4 cells of HUVEC were layered on the filters and grown in 10% FCS M199 for 2 days before the performance of each assay. Then, HUVEC were stimulated with TNF-α (50 ng/ml) for 24 hr and washed.

In assay [2] the test system is DTH. The assay can be described thus: DTH assay (adoptive transfer, oxazolone). The assay is classed as in vivo, BALB/c mice. The settings on record: oxazolone-reactive lymph node cells exposed in vitro to 1 μg/ml for 1 hr; ear swelling 24 hr. Here is the method:
DTH assays. BALB/c mice (females; 1.5 months of age) were sensitized by painting of their shaved abdominal walls with Oxazolone (2%) emulsified in 100 μl of acetone/olive oil (Sigma-Aldrich). On day 5, mice were sacrificed, their draining (inguinal, mesenteric, and cervical) lymph nodes were collected, and a single cell suspension was prepared. The cells were treated with HSP60 (1 μg/ml; 1 hr; tissue culture conditions), washed, and injected (5×10^7 cells per mouse) i.v. into the tails of naive mice (at least 6 mice per group). Painting of the earlobes with oxazolone (10 μl of 0.5% in acetone/olive oil), which generates a DTH response, was performed immediately after cell inoculation. The area of the ears that was painted was measured before challenge and 24 hr later with a micrometer. Changes in earlobe thickness are indicative of DTH reactivity. All animal studies were performed in compliance with and were approved by laws and animal welfare guidelines of The Weizmann Institute of Science (IACUC).

B1: HSP60: recombinant human heat shock protein 60 (StressGen Biotechnologies) (protein)
chain: AKDVKFGADARALMLQGVDLLADAVAVTMGPKGRTVIIEQSWGSPKVTKDGVTVAKSIDLKDKYKNIGAKLVQDVANNTNEEAGDGTTTATVLARSIAKEGFEKISKGANPVEIRRGVMLAVDAVIAELKKQSKPVTTPEEIAQVATISANGDKEIGNIISDAMKKVGRKGVITVKDGKTLNDELEIIEGMKFDRGYISPYFINTSKGQKCEFQDAYVLLSEKKISSIQSIVPALEIANAHRKPLVIIAEDVDGEALSTLVLNRLKVGLQVVAVKAPGFGDNRKNQLKDMAIATGGAVFGEEGLTLNLEDVQPHDLGKVGEVIVTKDDAMLLKGKGDKAQIEKRIQEIIEQLDVTTSEYEKEKLNERLAKLSDGVAVLKVGGTSDVEVNEKKDRVTDALNATRAAVEEGIVLGGGCALLRCIPALDSLTPANEDQKIGIEIIKRTLKIPAMTIAKNAGVEGSLIVEKIMQSSSEVGYDAMAGDFVNMVEKGIIDPTKVVRTALLDAAGVASLLTTAEVVVTEIPKEEKDPGMGAMGGMGGGMGGGMF
As to B1, the “migration of mouse lymph node cells towards SDF-1α” value in assay [1] is “inhibited migration of mouse lymph node cells towards SDF-1α”. The “inhibition of ability to adoptively transfer DTH” value in assay [2] is listed as 50%.
